Test results reported in patent US20230123041A1 (IMMUNOME, published 2023).

Experiments:
[1] = target: T1, Hu/Cy/Rh ROR1 - His (human/cynomolgus/rhesus (Hu/Cy/Rh), UniProt Q01973 30-403, limits assumed); experiment: SPR (Carterra); cell 'Kinetics (KD)' of 4A5 in the row and the column heads of the binning table; no unit is printed on the sheet, the four other KD cells equal the KD (M) values of Table 2 for Hu/Cy/Rh ROR1 - His
T1 construct: Purified His-tagged protein; also called human/cyno/rhesus ROR-1; not shown: His tag

[2] = target: T2, human ROR-1 endogenously expressed on JeKo-1 and MDA-MB-468 cells (human, UniProt Q01973 30-937); experiment: cellular binning by flow cytometry on MDA-MB-468 cells; ATX-P-875 titrated first, then a saturating dose of the competitor 4A5-PE [29D left panel]
T2 construct: whole, on cells; also called ROR-1 receptor; receptor tyrosine kinase like orphan receptor 1
Procedure: (§1) Next, the anti-ROR-1 antibodies were fluorescently labeled with a secondary antibody.
(§2) In Step 2, a fluorescently labeled secondary antibody recognizing the novel antibodies was incubated with the samples.

[3] = target: T2, human ROR-1 endogenously expressed on …; experiment: cellular binning by flow cytometry on MDA-MB-468 cells; antibody titrated, stained with labelled secondary antibody, % Top MFI [29D left panel]
Procedure: as §1, §2

[4] = target: T2, human ROR-1 endogenously expressed on …; experiment: cellular binning by flow cytometry on MDA-MB-468 cells; antibody titrated, stained with labelled secondary antibody, % Top MFI [29C left panel]
Procedure: as §1, §2

[5] = target: T2, human ROR-1 endogenously expressed on …; experiment: flow cytometry, antibody titration on ROR-1 positive JeKo-1 cells, secondary antibody staining, Net MFI [right panel]
Description: FIG. 27 illustrates a measurement of cell binding saturation data for the anti-ROR-1 antibodies generated by the methods described herein. […] Cells were washed, stained with secondary antibody and cell binding saturation was detected by flow cytometry and reported as mean fluorescent intensity (MFI).
A cell binding saturation assay was developed to evaluate how well the anti_ROR-1 antibodies developed in Example 28 bound to endogenously expressed extracellular ROR-1 protein on cell lines. […] Briefly, two ROR-1 positive cell lines, JeKo-1 and MDA-MB-468, were incubated in a titration series concentration of each antibody construct. Cells were then washed and subjected to secondary antibody staining and detection by flow cytometry. Mean fluorescence (MFI) was determined by analysis on cytometer software. […] (See FIG. 27).

[6] = target: T2, human ROR-1 endogenously expressed on …; experiment: cell-based or functional assay
[7] = target: T1, Hu/Cy/Rh ROR1 - His; experiment: SPR, binding to purified His-tagged protein
[8] = target: T2, human ROR-1 endogenously expressed on …; experiment: flow cytometry, antibody titration on ROR-1 positive JeKo-1 cells, secondary antibody staining, Net MFI [left panel]
[9] = target: T2, human ROR-1 endogenously expressed on …; experiment: cellular binning by flow cytometry on MDA-MB-468 cells; antibody titrated, stained with labelled secondary antibody, % Top MFI [29D middle panel]
Procedure: as §1, §2

[10] = target: T2, human ROR-1 endogenously expressed on …; experiment: cellular binning by flow cytometry on MDA-MB-468 cells; antibody titrated, stained with labelled secondary antibody, % Top MFI [29C middle panel]
Procedure: as §1, §2

[11] = target: T2, human ROR-1 endogenously expressed on …; experiment: cellular binning by flow cytometry on MDA-MB-468 cells; ATX-P-885 titrated first, then a saturating dose of the competitor Dy650-UC961; partial inhibition [29C middle panel]
Procedure: as §1, §2

B1: 4A5 (antibody, V domains shown)
VH: EVKLVESGGGLVKPGGSLKLSCAASGFTFSSYAMSWVRQIPEKRLEWVASISRGGTTYYPDSVKGRFTISRDNVRNILYLQMSSLRSEDTAMYYCGRYDYDGYYAMDYWGQGTSVTVSS
VL: DIKMTQSPSSMYASLGERVTITCKASPDINSYLSWFQQKPGKSPKTLIYRANRLVDGVPSRFSGGGSGQDYSLTINSLEYEDMGIYYCLQYDEFPYTFGGGTKLEMK
With B1 the Kd [1] was 2.81 nM.

B2: ATX-P-875 (antibody, human IgG1, kappa, V domains shown)
VH: not shown
VL: DIQMTQSPSSLSASVGDRVTITCRASQSISSYLNWYQQKPGKAPKLLIYAASSLQSGVPSRFSGSGSGTDFTLTISSLQPEDFATYYCQQYDNLPITFGQGTRLEIKR
notes: also called mAb A
B2 was tested, and the “IC50 (read off the curve)” value [2] was about 0.7 nM, the “EC50 (read off the curve)” value [3] was about 0.6 nM and the “EC50 (read off the curve)” value [4] was about 0.9 nM.

B3: UC961 (ATX-P-453) (antibody, V domains shown)
VH: QVQLQESGPGLVKPSQTLSLTCTVSGYAFTAYNIHWVRQAPGQGLEWMGSFDPYDGGSSYNQKFKDRLTISKDTSKNQVVLTMTNMDPVDTATYYCARGWYYFDYWGHGTLVTVSS
VL: DIVMTQTPLSLPVTPGEPASISCRASKSISKYLAWYQQKPGQAPRLLIYSGSTLQSGIPPRFSGSGYGTDFTLTINNIESEDAAYYFCQQHDESPYTFGEGTKVEIK
With B3 the “EC50 (read off the curve)” value [5] was about 0.1 nM, the “percent receptor internalization relative to time zero (flow cytometry of antibody remaining on the surface, JeKo-1 and MDA-MB-468)” value [6] was at least 75% and the Kd [7] was 4.69 nM. For the same binder, the koff [7] was 0.00591 s⁻¹, the kon [7] was 1.26e+06 M⁻¹ s⁻¹ and the “EC50 (read off the curve)” value [8] was about 0.02 nM.

B4: ATX-P-885 (antibody, human IgG1, kappa, V domains shown)
VH: QVQLQQWGAGLLKPSETLSLTCAVYGGSFSGYYWSWIRQPPGKGLEWIGEINHSGSTNYNPSLKSRVTISVDTSKNQFSLKLSSVTAADTAVYYCAREGVYEDYWGQGTLVTVSS
VL: EIVLTQSPATLSLSPGERATLSCRASQSVSNYLAWYQQKPGQAPRLLIYDAYNRATGIPARFSGSGSGTDFTLTISSLEPEDFAVYYCQQRSNWPLTFGQGTRLEIKR
notes: also called mAb B
For B4, the “EC50 (read off the curve)” value [9] was about 2 nM, the “EC50 (read off the curve)” value [5] was about 0.3 nM and the “EC50 (read off the curve)” value [10] was about 3 nM. The “IC50 (read off the curve)” value [11] was about 3 nM.
